Laboratory results published in patent US20160368965A1 (IMMATICS BIOTECHNOLOGIES, published 2016).
Blank lines part the entries; values can stand above or below the binder they belong to.

Molecular target: T1, HLA-A*02:01 (human)
T1 construct: the tested peptide takes its place; also called peptide-receptive MHC molecules; MHC class I
Experiment: UV-ligand exchange, anti-β2m ELISA; grade of peptide exchange yield
Description: Candidate peptides for T cell based therapies according to the present invention were further tested for their MHC binding capacity (affinity). The individual peptide-MHC complexes were produced by UV-ligand exchange, where a UV-sensitive peptide is cleaved upon UV-irradiation, and exchanged with the peptide of interest as analyzed. Only peptide candidates that can effectively bind and stabilize the peptide-receptive MHC molecules prevent dissociation of the MHC complexes. To determine the yield of the exchange reaction, an ELISA was performed based on the detection of the light chain (β2m) of stabilized MHC complexes. The assay was performed as generally described in Rodenko et al. (Rodenko et al., 2006).
96 well MAXISorp plates (NUNC) were coated over night with 2 ug/ml streptavidin in PBS at room temperature, washed 4× and blocked for 1h at 37° C. in 2% BSA containing blocking buffer. Refolded HLA-A*02:01/MLA-001 monomers served as standards, covering the range of 15-500 ng/ml. Peptide-MHC monomers of the UV-exchange reaction were diluted 100 fold in blocking buffer. Samples were incubated for 1 h at 37° C., washed four times, incubated with 2 ug/ml HRP conjugated anti-β2m for 1h at 37° C., washed again and detected with TMB solution that is stopped with […]. Absorption was measured at 450 nm. Candidate peptides that show a high exchange yield (preferably higher than 50%, most preferred higher than 75%) are generally preferred for a generation and production of antibodies or fragments thereof, and/or T cell receptors or fragments thereof, as they show sufficient avidity to the MHC molecules and prevent dissociation of the MHC complexes.

B1: GLVDGRDLVIV (SEQ ID NO: 21) (peptide)
peptide: GLVDGRDLVIV
peptide exchange yield: 50 to 75%

B2: ILSTEIFGV (SEQ ID NO: 22) (peptide)
peptide: ILSTEIFGV
peptide exchange yield: 50 to 75%

B3: KLDSSGGAVQL (SEQ ID NO: 23) (peptide)
peptide: KLDSSGGAVQL
peptide exchange yield: 20 to 50%

B4: KLSENAGIQSL (SEQ ID NO: 24) (peptide)
peptide: KLSENAGIQSL
peptide exchange yield: 20 to 50%

B5: LINPNIATV (SEQ ID NO: 25) (peptide)
peptide: LINPNIATV
peptide exchange yield: 20 to 50%

B10: ILIGETIKI (SEQ ID NO: 3) (peptide)
peptide: ILIGETIKI
peptide exchange yield: 50 to 75%

B14: FLEDDDIAAV (SEQ ID NO: 34) (peptide)
peptide: FLEDDDIAAV
peptide exchange yield: 20 to 50%

B15: FLFPSQYVDV (SEQ ID NO: 35) (peptide)
peptide: FLFPSQYVDV
peptide exchange yield: 50 to 75%

B16: FLGDLSHLL (SEQ ID NO: 36) (peptide)
peptide: FLGDLSHLL
peptide exchange yield: 20 to 50%

B17: FLNPDEVHAI (SEQ ID NO: 37) (peptide)
peptide: FLNPDEVHAI
peptide exchange yield: 20 to 50%

B18: FLTEAALGDA (SEQ ID NO: 38) (peptide)
peptide: FLTEAALGDA
peptide exchange yield: 50 to 75%

B19: FLTPSIFII (SEQ ID NO: 39) (peptide)
peptide: FLTPSIFII
peptide exchange yield: 20 to 50%

B20: GLAPQIHDL (SEQ ID NO: 40) (peptide)
peptide: GLAPQIHDL
peptide exchange yield: 20 to 50%

B21: ALDPAAQAFLL (SEQ ID NO: 4) (peptide)
peptide: ALDPAAQAFLL
peptide exchange yield: 50 to 75%

B22: GLLAGNEKLTM (SEQ ID NO: 41) (peptide)
peptide: GLLAGNEKLTM
peptide exchange yield: 20 to 50%

B23: ILSDMRSQYEV (SEQ ID NO: 42) (peptide)
peptide: ILSDMRSQYEV
peptide exchange yield: 50 to 75%

B24: HLGVKVFSV (SEQ ID NO: 43) (peptide)
peptide: HLGVKVFSV
peptide exchange yield: 20 to 50%

B25: ILAQVGFSV (SEQ ID NO: 44) (peptide)
peptide: ILAQVGFSV
peptide exchange yield: 50 to 75%

B26: ILYSDDGQKWTV (SEQ ID NO: 45) (peptide)
peptide: ILYSDDGQKWTV
peptide exchange yield: 50 to 75%

B28: LIYKDLVSV (SEQ ID NO: 47) (peptide)
peptide: LIYKDLVSV
peptide exchange yield: 50 to 75%

B29: LLDENGVLKL (SEQ ID NO: 48) (peptide)
peptide: LLDENGVLKL
peptide exchange yield: 50 to 75%

B30: LLDGFPRTV (SEQ ID NO: 49) (peptide)
peptide: LLDGFPRTV
peptide exchange yield: 20 to 50%

B31: LLFGSDGYYV (SEQ ID NO: 50) (peptide)
peptide: LLFGSDGYYV
peptide exchange yield: 50 to 75%

B32: ALLTGIISKA (SEQ ID NO: 5) (peptide)
peptide: ALLTGIISKA
peptide exchange yield: 50 to 75%

B33: LLGPAGARA (SEQ ID NO: 51) (peptide)
peptide: LLGPAGARA
peptide exchange yield: 20 to 50%

B34: LLSDPIPEV (SEQ ID NO: 52) (peptide)
peptide: LLSDPIPEV
peptide exchange yield: 50 to 75%

B35: LLWDPSTGKQV (SEQ ID NO: 53) (peptide)
peptide: LLWDPSTGKQV
peptide exchange yield: 50 to 75%

B36: LTQPGPIASA (SEQ ID NO: 54) (peptide)
peptide: LTQPGPIASA
peptide exchange yield: 50 to 75%

B43: ALTGIPLPLI (SEQ ID NO: 6) (peptide)
peptide: ALTGIPLPLI
peptide exchange yield: 50 to 75%

B54: ALVDIVRSL (SEQ ID NO: 7) (peptide)
peptide: ALVDIVRSL
peptide exchange yield: 50 to 75%

B61: LLPGTEYVVSV (SEQ ID NO: 80) (peptide)
peptide: LLPGTEYVVSV
peptide exchange yield: 50 to 75%

B63: ALIAEGIAL (SEQ ID NO: 82) (peptide)
peptide: ALIAEGIAL
peptide exchange yield: 50 to 75%

B64: ALSKEIYVI (SEQ ID NO: 83) (peptide)
peptide: ALSKEIYVI
peptide exchange yield: 50 to 75%

B65: ALYTGSALDFV (SEQ ID NO: 8) (peptide)
peptide: ALYTGSALDFV
peptide exchange yield: 50 to 75%

B66: FILPIGATV (SEQ ID NO: 84) (peptide)
peptide: FILPIGATV
peptide exchange yield: ≥ 75%

B67: FLSDGTIISV (SEQ ID NO: 85) (peptide)
peptide: FLSDGTIISV
peptide exchange yield: ≥ 75%

Further lines, results first:

peptide exchange yield: 50 to 75%
B6: SLYTALTEA (SEQ ID NO: 26) (peptide)
peptide: SLYTALTEA

peptide exchange yield: 50 to 75%
B7: TLLAHPVTL (SEQ ID NO: 27) (peptide)
peptide: TLLAHPVTL

peptide exchange yield: 50 to 75%
B8: VLDEFYSSL (SEQ ID NO: 28) (peptide)
peptide: VLDEFYSSL

peptide exchange yield: ≥ 75%
B9: YILPFSEVL (SEQ ID NO: 29) (peptide)
peptide: YILPFSEVL

peptide exchange yield: 20 to 50%
B11: YIYKDTIQV (SEQ ID NO: 30) (peptide)
peptide: YIYKDTIQV

peptide exchange yield: 50 to 75%
B12: YLDSMYIML (SEQ ID NO: 31) (peptide)
peptide: YLDSMYIML

peptide exchange yield: 20 to 50%
B13: YVDDGLISL (SEQ ID NO: 32) (peptide)
peptide: YVDDGLISL

peptide exchange yield: 50 to 75%
B27: TMVEHNYYV (SEQ ID NO: 46) (peptide)
peptide: TMVEHNYYV

peptide exchange yield: 20 to 50%
B37: NLAPAPLNA (SEQ ID NO: 55) (peptide)
peptide: NLAPAPLNA

peptide exchange yield: 20 to 50%
B38: NLIGVTAEL (SEQ ID NO: 56) (peptide)
peptide: NLIGVTAEL

peptide exchange yield: 50 to 75%
B39: RLSELGITQA (SEQ ID NO: 57) (peptide)
peptide: RLSELGITQA

peptide exchange yield: 20 to 50%
B40: RQYPWGVVQV (SEQ ID NO: 58) (peptide)
peptide: RQYPWGVVQV

peptide exchange yield: 50 to 75%
B41: SLSESFFMV (SEQ ID NO: 59) (peptide)
peptide: SLSESFFMV

peptide exchange yield: ≥ 75%
B42: SLWEDYPHV (SEQ ID NO: 60) (peptide)
peptide: SLWEDYPHV

peptide exchange yield: 20 to 50%
B44: SMYDGLLQA (SEQ ID NO: 61) (peptide)
peptide: SMYDGLLQA

peptide exchange yield: 10 to 20%
B45: SVFPGARLL (SEQ ID NO: 62) (peptide)
peptide: SVFPGARLL

peptide exchange yield: ≥ 75%
B46: SVTGIIVGV (SEQ ID NO: 63) (peptide)
peptide: SVTGIIVGV

peptide exchange yield: ≥ 75%
B47: TLFSEPKFAQV (SEQ ID NO: 64) (peptide)
peptide: TLFSEPKFAQV

peptide exchange yield: 50 to 75%
B48: TLNEKLTAL (SEQ ID NO: 65) (peptide)
peptide: TLNEKLTAL

peptide exchange yield: ≥ 75%
B49: VIWGTDVNV (SEQ ID NO: 67) (peptide)
peptide: VIWGTDVNV

peptide exchange yield: 50 to 75%
B50: VLFDVTGQV (SEQ ID NO: 68) (peptide)
peptide: VLFDVTGQV

peptide exchange yield: 50 to 75%
B51: VLFSGSLRL (SEQ ID NO: 69) (peptide)
peptide: VLFSGSLRL

peptide exchange yield: ≥ 75%
B52: VLGVIWGV (SEQ ID NO: 70) (peptide)
peptide: VLGVIWGV

peptide exchange yield: 50 to 75%
B53: VLLPEGGITAI (SEQ ID NO: 71) (peptide)
peptide: VLLPEGGITAI

peptide exchange yield: 50 to 75%
B55: VMASPGGLSAV (SEQ ID NO: 72) (peptide)
peptide: VMASPGGLSAV

peptide exchange yield: ≥ 75%
B56: VMVDGKPVNL (SEQ ID NO: 73) (peptide)
peptide: VMVDGKPVNL

peptide exchange yield: 50 to 75%
B57: YIDKDLEYV (SEQ ID NO: 74) (peptide)
peptide: YIDKDLEYV

peptide exchange yield: ≥ 75%
B58: RLFPGSSFL (SEQ ID NO: 77) (peptide)
peptide: RLFPGSSFL

peptide exchange yield: 50 to 75%
B59: SLQDTEEKSRS (SEQ ID NO: 78) (peptide)
peptide: SLQDTEEKSRS

peptide exchange yield: 50 to 75%
B60: VVYEGQLISI (SEQ ID NO: 79) (peptide)
peptide: VVYEGQLISI

peptide exchange yield: 50 to 75%
B62: VVYDDSTGLIRL (SEQ ID NO: 81) (peptide)
peptide: VVYDDSTGLIRL
